Experiment [1] deals with T1, CD38 on CD38-positive cell lines (human, UniProt P28907 1-300). Nature of the experiment: FACS; Daudi cells. On the technique in general: In flow cytometry, cells or beads pass a laser one at a time.
Experiment [2] has as its target T1, CD38 on CD38-positive cell lines. The experiment in a line: FACS; MM1S cells.
Experiment [3] shares this target. The experiment in a line: FACS; Raji cells.
Experiment [4] shares this target. Nature of the experiment: FACS; H929 cells.
The target is the same in experiment [5]. The experiment in a line: FACS; MOLP-8 cells.
Experiment [6] shares this target. The experiment in a line: FACS; SU-DHL-6 cells.
For experiment [7] the target is unchanged. The experiment in a line: FACS; RPMI 8226 cells.
Experiment [8] shares this target. The experiment in a line: FACS; Ramos cells.

B1: daratumumab (antibody, V domains shown)
VH: EVQLLESGGGLVQPGGSLRLSCAVSGFTFNSFAMSWVRQAPGKGLEWVSAISGSGGGTYYADSVKGRFTISRDNSKNTLYLQMNSLRAEDTAVYFCAKDKILWFGEPVFDYWGQGTLVTVSS
VL: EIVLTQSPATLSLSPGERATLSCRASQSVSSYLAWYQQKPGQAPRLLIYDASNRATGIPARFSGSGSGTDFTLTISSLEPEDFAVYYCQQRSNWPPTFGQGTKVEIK
Usually EC50 stands for the midpoint of the concentration-response curve. Read a low EC50 as an effect from little substance. On to B1, for which the EC50 in experiment [1] was 0.289 µg/mL; in experiment [2] it was 0.581 µg/mL; in experiment [3], 0.321 µg/mL; in experiment [4], 0.767 µg/mL; in experiment [5], 0.28 µg/mL; in experiment [6], 0.548 µg/mL. Further, the EC50 is 1.19 µg/mL in experiment [7] and 0.74 µg/mL in experiment [8].

The values above are taken from article PMC9798557 (2022).
